Measurements from publication PMC12700780, “The PavDREB1E–PavD8–PavHY5 module integrates light and gibberellin signals to regulate sweet cherry anthocyanin biosynthesis”.

B1: ProPavDFR probe (dsDNA)
DNA 1: GTAATTACCACCGACCAAAAAAGAACATTG
DNA 2: CAATGTTCTTTTTTGGTCGGTGGTAATTAC
B2: ProPavCHS probe (dsDNA)
DNA 1: GGGAAAGAAATTAAGTCGGTAGATGATATT
DNA 2: AATATCATCTACCGACTTAATTTCTTTCCC
B3: ProPavUFGT probe (dsDNA)
DNA 1: ACTTCACGAGCTCATCGACTAATAAGAAAG
DNA 2: CTTTCTTATTAGTCGATGAGCTCGTGAAGT

Tests used:
PavDREB1E-GST = PavDREB1E-GST (Prunus avium, UniProt A0A6P5RM44 1-238); assay: EMSA; unlabeled probe competes; Chemiluminescent EMSA kit (Beyotime), manufacturer's instructions; 2 ug PavDREB1E-GST in PavD8 assays; buffer, salt, pH and temperature not stated; settings: protein: recombinant; tags: GST; label: biotin; only one strand given
PavDREB1E-GST;PavD8-GST = PavDREB1E-GST;PavD8-GST (Prunus avium;Prunus avium, UniProt A0A6P5RM44;A0A6P5SVV0 1-238;1-537, |); assay: EMSA; 2 ug PavDREB1E-GST with 2, 4, 6 ug PavD8-GST; PavD8 enhances the shifted band; Chemiluminescent EMSA kit (Beyotime), manufacturer's instructions; 2 ug PavDREB1E-GST in PavD8 assays; buffer, salt, pH and temperature not stated; settings: protein: recombinant;recombinant; tags: GST;GST; label: biotin; only one strand given
PavDREB1E-GST;PavD8-GST, sequence (chain, as listed by the source |, chain 1 of 2): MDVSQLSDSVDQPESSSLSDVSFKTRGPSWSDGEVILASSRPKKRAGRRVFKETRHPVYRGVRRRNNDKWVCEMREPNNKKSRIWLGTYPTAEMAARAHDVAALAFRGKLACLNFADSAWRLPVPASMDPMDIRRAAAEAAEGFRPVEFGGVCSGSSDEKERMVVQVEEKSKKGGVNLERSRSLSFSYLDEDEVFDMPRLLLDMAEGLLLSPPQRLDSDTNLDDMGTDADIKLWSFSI
PavDREB1E-GST;PavD8-GST, sequence (chain, as listed by the source |, chain 2 of 2): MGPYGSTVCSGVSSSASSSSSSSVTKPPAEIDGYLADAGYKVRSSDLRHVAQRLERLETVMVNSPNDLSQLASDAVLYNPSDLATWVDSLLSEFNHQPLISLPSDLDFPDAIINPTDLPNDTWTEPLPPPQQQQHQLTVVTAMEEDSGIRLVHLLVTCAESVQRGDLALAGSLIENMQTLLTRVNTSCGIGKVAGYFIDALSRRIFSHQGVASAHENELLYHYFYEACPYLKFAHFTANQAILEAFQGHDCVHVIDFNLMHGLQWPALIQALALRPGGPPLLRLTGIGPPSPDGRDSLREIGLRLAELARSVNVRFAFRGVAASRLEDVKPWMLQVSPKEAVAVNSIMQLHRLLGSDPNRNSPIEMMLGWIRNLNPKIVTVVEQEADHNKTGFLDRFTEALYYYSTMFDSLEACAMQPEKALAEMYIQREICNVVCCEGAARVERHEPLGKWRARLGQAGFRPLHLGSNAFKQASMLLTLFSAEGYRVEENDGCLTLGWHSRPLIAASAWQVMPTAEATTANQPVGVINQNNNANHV

PavDREB1E-GST, sequence (A0A6P5RM44 entry or part of it): as the sequence (chain, as listed by the source |, chain 1 of 2) above

Binder | binding result (PavDREB1E-GST) | binding result (PavDREB1E-GST;PavD8-GST)
B1 | binds | binds
B2 | binds | binds
B3 | binds | binds
